# Results from US20140357577A1, “HIV Membrane Fusion Inhibitors” (priority 2011, published 2014).
# Starred links: 1 amine or outer side, 2 acyl side, 3 side chain; linkers in the order of their positions; H or OH if unused. Positions of bridges follow the written chain, without caps; N, C: chain ends. *: point of attachment. cholesteryl‑succinyl = CC(C)CCC[C@@H](C)[C@H]1CC[C@H]2[C@@H]3CC=C4C[C@@H](OC(=O)CCC(=O)*)CC[C@]4(C)[C@H]3CC[C@]12C; pXylylene = c1cc(C[*:2])ccc1C[*:1]; Suc = O=C(CCC(=O)[*:2])[*:1]
# Target: gp41 of HIV-1 strain HXB2D with mutation V38A (HIV-1 strain HXB2D, UniProt P04578)
# Experiment: cell-based or functional assay
row,Binder,"fold change in EC50, HIV-HXB2D V38A mutant [fold]"
1,Ac-ACYVACIEALIRAAQEQQEKNEAALR-NH2 (linker 2-6 via pXylylene; SMILES CC[C@H](C)[C@H](NC(=O)[C@H](CC(C)C)NC(=O)[C@H](C)NC(=O)[C@H](CCC(=O)O)NC(=O)[C@@H](NC(=O)[C@@H]1CSCc2ccc(cc2)CSC[C@H](NC(=O)[C@H](C)NC(C)=O)C(=O)N[C@@H](Cc2ccc(O)cc2)C(=O)N[C@@H](C(C)C)C(=O)N[C@@H](C)C(=O)N1)[C@@H](C)CC)C(=O)N[C@@H](CCCNC(=N)N)C(=O)N[C@@H](C)C(=O)N[C@@H](C)C(=O)N[C@@H](CCC(N)=O)C(=O)N[C@@H](CCC(=O)O)C(=O)N[C@@H](CCC(N)=O)C(=O)N[C@@H](CCC(N)=O)C(=O)N[C@@H](CCC(=O)O)C(=O)N[C@@H](CCCCN)C(=O)N[C@@H](CC(N)=O)C(=O)N[C@@H](CCC(=O)O)C(=O)N[C@@H](C)C(=O)N[C@@H](C)C(=O)N[C@@H](CC(C)C)C(=O)N[C@@H](CCCNC(=N)N)C(N)=O) [peptide 62],15
2,"Ac-ACYAACIEALIRAAQEQQEKNEAALR-NH2 (linker 2-6 via 2,7‑dimethylnaphthyl) [peptide 66]",66
3,Suc-ANYAALIEALIRAAQEQQEKNEAALR-NH2 (SMILES CC[C@H](C)[C@H](NC(=O)[C@H](CC(C)C)NC(=O)[C@H](C)NC(=O)[C@H](CCC(=O)O)NC(=O)[C@@H](NC(=O)[C@H](CC(C)C)NC(=O)[C@H](C)NC(=O)[C@H](C)NC(=O)[C@H](Cc1ccc(O)cc1)NC(=O)[C@H](CC(N)=O)NC(=O)[C@H](C)NC(=O)CCC(=O)O)[C@@H](C)CC)C(=O)N[C@@H](CCCNC(=N)N)C(=O)N[C@@H](C)C(=O)N[C@@H](C)C(=O)N[C@@H](CCC(N)=O)C(=O)N[C@@H](CCC(=O)O)C(=O)N[C@@H](CCC(N)=O)C(=O)N[C@@H](CCC(N)=O)C(=O)N[C@@H](CCC(=O)O)C(=O)N[C@@H](CCCCN)C(=O)N[C@@H](CC(N)=O)C(=O)N[C@@H](CCC(=O)O)C(=O)N[C@@H](C)C(=O)N[C@@H](C)C(=O)N[C@@H](CC(C)C)C(=O)N[C@@H](CCCNC(=N)N)C(N)=O) [peptide 3],74
4,Suc-ACYAACIEALIRAAQEQQEKNEAALR-NH2 (linker 2-6 via pXylylene; SMILES CC[C@H](C)[C@H](NC(=O)[C@H](CC(C)C)NC(=O)[C@H](C)NC(=O)[C@H](CCC(=O)O)NC(=O)[C@@H](NC(=O)[C@@H]1CSCc2ccc(cc2)CSC[C@H](NC(=O)[C@H](C)NC(=O)CCC(=O)O)C(=O)N[C@@H](Cc2ccc(O)cc2)C(=O)N[C@@H](C)C(=O)N[C@@H](C)C(=O)N1)[C@@H](C)CC)C(=O)N[C@@H](CCCNC(=N)N)C(=O)N[C@@H](C)C(=O)N[C@@H](C)C(=O)N[C@@H](CCC(N)=O)C(=O)N[C@@H](CCC(=O)O)C(=O)N[C@@H](CCC(N)=O)C(=O)N[C@@H](CCC(N)=O)C(=O)N[C@@H](CCC(=O)O)C(=O)N[C@@H](CCCCN)C(=O)N[C@@H](CC(N)=O)C(=O)N[C@@H](CCC(=O)O)C(=O)N[C@@H](C)C(=O)N[C@@H](C)C(=O)N[C@@H](CC(C)C)C(=O)N[C@@H](CCCNC(=N)N)C(N)=O) [peptide 67],30
5,Ac-ACYAACIEALIRAAQEQQEKNEAALR-NH2 (linker 2-6 via pXylylene; SMILES CC[C@H](C)[C@H](NC(=O)[C@H](CC(C)C)NC(=O)[C@H](C)NC(=O)[C@H](CCC(=O)O)NC(=O)[C@@H](NC(=O)[C@@H]1CSCc2ccc(cc2)CSC[C@H](NC(=O)[C@H](C)NC(C)=O)C(=O)N[C@@H](Cc2ccc(O)cc2)C(=O)N[C@@H](C)C(=O)N[C@@H](C)C(=O)N1)[C@@H](C)CC)C(=O)N[C@@H](CCCNC(=N)N)C(=O)N[C@@H](C)C(=O)N[C@@H](C)C(=O)N[C@@H](CCC(N)=O)C(=O)N[C@@H](CCC(=O)O)C(=O)N[C@@H](CCC(N)=O)C(=O)N[C@@H](CCC(N)=O)C(=O)N[C@@H](CCC(=O)O)C(=O)N[C@@H](CCCCN)C(=O)N[C@@H](CC(N)=O)C(=O)N[C@@H](CCC(=O)O)C(=O)N[C@@H](C)C(=O)N[C@@H](C)C(=O)N[C@@H](CC(C)C)C(=O)N[C@@H](CCCNC(=N)N)C(N)=O) [peptide 68],21
6,Ac-ACYAACIEALIRAAQEQQEKNEAALR-NH2 (linker 2-6 via meta‑xylene) [peptide 65],16
7,Ac-ACYWACIEALIRAAQEQQEKNEAALR-NH2 (linker 2-6 via pXylylene; SMILES CC[C@H](C)[C@H](NC(=O)[C@H](CC(C)C)NC(=O)[C@H](C)NC(=O)[C@H](CCC(=O)O)NC(=O)[C@@H](NC(=O)[C@@H]1CSCc2ccc(cc2)CSC[C@H](NC(=O)[C@H](C)NC(C)=O)C(=O)N[C@@H](Cc2ccc(O)cc2)C(=O)N[C@@H](Cc2c[nH]c3ccccc23)C(=O)N[C@@H](C)C(=O)N1)[C@@H](C)CC)C(=O)N[C@@H](CCCNC(=N)N)C(=O)N[C@@H](C)C(=O)N[C@@H](C)C(=O)N[C@@H](CCC(N)=O)C(=O)N[C@@H](CCC(=O)O)C(=O)N[C@@H](CCC(N)=O)C(=O)N[C@@H](CCC(N)=O)C(=O)N[C@@H](CCC(=O)O)C(=O)N[C@@H](CCCCN)C(=O)N[C@@H](CC(N)=O)C(=O)N[C@@H](CCC(=O)O)C(=O)N[C@@H](C)C(=O)N[C@@H](C)C(=O)N[C@@H](CC(C)C)C(=O)N[C@@H](CCCNC(=N)N)C(N)=O) [peptide 63],22
8,Ac-ACYFACIEALIRAAQEQQEKNEAALR-NH2 (linker 2-6 via pXylylene; SMILES CC[C@H](C)[C@H](NC(=O)[C@H](CC(C)C)NC(=O)[C@H](C)NC(=O)[C@H](CCC(=O)O)NC(=O)[C@@H](NC(=O)[C@@H]1CSCc2ccc(cc2)CSC[C@H](NC(=O)[C@H](C)NC(C)=O)C(=O)N[C@@H](Cc2ccc(O)cc2)C(=O)N[C@@H](Cc2ccccc2)C(=O)N[C@@H](C)C(=O)N1)[C@@H](C)CC)C(=O)N[C@@H](CCCNC(=N)N)C(=O)N[C@@H](C)C(=O)N[C@@H](C)C(=O)N[C@@H](CCC(N)=O)C(=O)N[C@@H](CCC(=O)O)C(=O)N[C@@H](CCC(N)=O)C(=O)N[C@@H](CCC(N)=O)C(=O)N[C@@H](CCC(=O)O)C(=O)N[C@@H](CCCCN)C(=O)N[C@@H](CC(N)=O)C(=O)N[C@@H](CCC(=O)O)C(=O)N[C@@H](C)C(=O)N[C@@H](C)C(=O)N[C@@H](CC(C)C)C(=O)N[C@@H](CCCNC(=N)N)C(N)=O) [peptide 61],20
9,Ac-ACYAACIEALIRKAQEQQEKNEAALR-NH2 (linker 2-6 via pXylylene; SMILES CC[C@H](C)[C@H](NC(=O)[C@@H]1CSCc2ccc(cc2)CSC[C@H](NC(=O)[C@H](C)NC(C)=O)C(=O)N[C@@H](Cc2ccc(O)cc2)C(=O)N[C@@H](C)C(=O)N[C@@H](C)C(=O)N1)C(=O)N[C@@H](CCC(=O)O)C(=O)N[C@@H](C)C(=O)N[C@@H](CC(C)C)C(=O)N[C@H](C(=O)N[C@@H](CCCNC(=N)N)C(=O)N[C@@H](CCCCN)C(=O)N[C@@H](C)C(=O)N[C@@H](CCC(N)=O)C(=O)N[C@@H](CCC(=O)O)C(=O)N[C@@H](CCC(N)=O)C(=O)N[C@@H](CCC(N)=O)C(=O)N[C@@H](CCC(=O)O)C(=O)N[C@@H](CCCCN)C(=O)N[C@@H](CC(N)=O)C(=O)N[C@@H](CCC(=O)O)C(=O)N[C@@H](C)C(=O)N[C@@H](C)C(=O)N[C@@H](CC(C)C)C(=O)N[C@@H](CCCNC(=N)N)C(N)=O)[C@@H](C)CC) [peptide 71],11
10,Ac-ANYLALIEALIRAAQEQQEKNEAALRGSGK(cholesteryl‑succinyl)-NH2 (SMILES CC[C@H](C)[C@H](NC(=O)[C@H](CC(C)C)NC(=O)[C@H](C)NC(=O)[C@H](CCC(=O)O)NC(=O)[C@@H](NC(=O)[C@H](CC(C)C)NC(=O)[C@H](C)NC(=O)[C@H](CC(C)C)NC(=O)[C@H](Cc1ccc(O)cc1)NC(=O)[C@H](CC(N)=O)NC(=O)[C@H](C)NC(C)=O)[C@@H](C)CC)C(=O)N[C@@H](CCCNC(=N)N)C(=O)N[C@@H](C)C(=O)N[C@@H](C)C(=O)N[C@@H](CCC(N)=O)C(=O)N[C@@H](CCC(=O)O)C(=O)N[C@@H](CCC(N)=O)C(=O)N[C@@H](CCC(N)=O)C(=O)N[C@@H](CCC(=O)O)C(=O)N[C@@H](CCCCN)C(=O)N[C@@H](CC(N)=O)C(=O)N[C@@H](CCC(=O)O)C(=O)N[C@@H](C)C(=O)N[C@@H](C)C(=O)N[C@@H](CC(C)C)C(=O)N[C@@H](CCCNC(=N)N)C(=O)NCC(=O)N[C@@H](CO)C(=O)NCC(=O)N[C@@H](CCCCNC(=O)CCC(=O)O[C@H]1CC[C@@]2(C)C(=CC[C@H]3[C@@H]4CC[C@H]([C@H](C)CCCC(C)C)[C@@]4(C)CC[C@@H]32)C1)C(N)=O) [peptide 69],1
11,Ac-ACYAACIEALIRAAQEQQEKNEAALR-NH2 (linker 2-6 via ortho‑xylene) [peptide 64],15
12,Ac-ACYAACIDALIRAAQEQQEKNEAALR-NH2 (linker 2-6 via pXylylene; SMILES CC[C@H](C)[C@H](NC(=O)[C@H](CC(C)C)NC(=O)[C@H](C)NC(=O)[C@H](CC(=O)O)NC(=O)[C@@H](NC(=O)[C@@H]1CSCc2ccc(cc2)CSC[C@H](NC(=O)[C@H](C)NC(C)=O)C(=O)N[C@@H](Cc2ccc(O)cc2)C(=O)N[C@@H](C)C(=O)N[C@@H](C)C(=O)N1)[C@@H](C)CC)C(=O)N[C@@H](CCCNC(=N)N)C(=O)N[C@@H](C)C(=O)N[C@@H](C)C(=O)N[C@@H](CCC(N)=O)C(=O)N[C@@H](CCC(=O)O)C(=O)N[C@@H](CCC(N)=O)C(=O)N[C@@H](CCC(N)=O)C(=O)N[C@@H](CCC(=O)O)C(=O)N[C@@H](CCCCN)C(=O)N[C@@H](CC(N)=O)C(=O)N[C@@H](CCC(=O)O)C(=O)N[C@@H](C)C(=O)N[C@@H](C)C(=O)N[C@@H](CC(C)C)C(=O)N[C@@H](CCCNC(=N)N)C(N)=O) [peptide 70],11
